We go through 31 sequences from the supplement of paper PMC9170038.

The test system of the data set is MS2 coat protein. Put plainly: apparent KD of MS2 coat protein; designed switch direction (-1 OFF switch, 1 ON switch): -1; higher = weaker reporter binding. The method, boiled down: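 Each step of the titration lasted 0.8–1.5 h at the lowest concentration and 10–20 min at the highest. The protein, SNAP-549-labelled MS2 coat protein, went from 0.7 or 1.5 nM doubling to 3 µM over RNA switches transcribed on Illumina chips by stalled E. coli RNA polymerase. Normalised cluster fluorescence was curve-fitted, and the per-design median over clusters is given as apparent KD.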

Setting [1] is: Eterna round: R95, input ligand: microRNA oligo, concentration not stated.
Where [2] appears, read: input ligand: microRNA oligo, concentration not stated.
The mark [3] stands for this setting: Eterna round: R95, input ligand: FMN 200 uM.
Setting [4] is: Eterna round: R95, input ligand: none.

Regarding “AGGCAGCAAGGAUAUACAUAAUUCCUACAAGUCAGCAUAGGACAUGAGGAUCACCCAUGUAGAAGGUGCAAAGA [Soesquma] (puzzle: Exclusion 2)”, under setting [1], the “apparent KD of MS2 coat protein” value came to 24.5 nM.

As to “ACCCAGUCAGGAUAUCCGGAGUUCCGCGAUGGCGGACGGUAGGAGAAGGGACAUGAGGAUCACCCAUGUAGAAA [EX4 B.17] (Eterna round: R97, puzzle: Exclusion 4)”, the “apparent KD of MS2 coat protein” value by setting is: (input ligand: FMN 200 uM) 179 nM; (input ligand: none) 34.7 nM.

In the case of “AGAUCACAUGAGGAUCACCCAUGUCAGGAUAUCGACUGAUCAGCUUCGGCUGAUCAGUCGAGAAGGGACAAUUA [E1/1-A2] (Eterna round: R97, puzzle: Exclusion 1)”, the “apparent KD of MS2 coat protein” value by setting is: (input ligand: FMN 200 uM) 511 nM; (input ligand: none) 280 nM.

Regarding “UCCGAACAUGAGGAUCACCCAUGUCAGGAUAUAUUAAAGAAAGCCCGCGAAUGUGGGUAUAGAAGGGACAUGAA [Zaatinxe] (Eterna round: R97, puzzle: Exclusion 1)”, the “apparent KD of MS2 coat protein” value by setting is: (input ligand: FMN 200 uM) 15.8 nM; (input ligand: none) 15.6 nM.

“CACCGUUACUGAGGAUAUGGCACAUGAGGAUCACCCAUGUAAUAAAUGAGAAUUUCGGAUGUAUUCCAGAAGGCAGUAACCGGC [Ostricism 69 - Jieux - Exclusion NG 2] (Eterna round: R96, puzzle: Exclusion NG 2)”: the “apparent KD of MS2 coat protein” value (input ligand: FMN 200 uM) is 30 nM, the “apparent KD of MS2 coat protein” value under setting [2] came out at 23.3 nM and the “apparent KD of MS2 coat protein” value (input ligand: none) was found to be 27.1 nM.

Consider “UAUAACCAAGGAUAUACAUGAGGAUCACCCAUGUAAUAUAAUAUAAUAUAAAUAAAAUGUAGAAGGUGGGAUAU (Eterna round: R97, puzzle: Exclusion 3)”, for which the “apparent KD of MS2 coat protein” value was 26.6 nM (input ligand: FMN 200 uM) and 31.4 nM (input ligand: none).

For the sequence “CGGUAACAUGAGGAUCACCCAUGUGAGGAUAUCGUACGUUCGUCGAUAGACGAUCGUACGAGAAGGCAUGACCG [Mat - Exclusion 1 - Eli Mod - D33] (Eterna round: R97, puzzle: Exclusion 1)”, the “apparent KD of MS2 coat protein” value by setting is: (input ligand: FMN 200 uM) 21.4 nM; (input ligand: none) 43.9 nM.

For the sequence “UUUAAUCAUGUAGGAUAUGCGUGGCGAAGCUAUGCAGAAGGACAUGAGGAUCACCCAUGUUCUAGCGUCUGCGUACAGAUGCGG [13th something] (Eterna round: R96, puzzle: Exclusion NG 1)”, the “apparent KD of MS2 coat protein” value by setting is: (input ligand: FMN 200 uM) 229 nM; under setting [2], 35.3 nM; (input ligand: none) 39.9 nM.

For “ACAAGCUUUUGCUCGUCUUACAUGAGGAUCACCCAUGUCGGGAACAUGCAUACAUACAACAUAUAAACAGUAACAGA [high energy, high % A (36%)] (Eterna round: R97, puzzle: Sensor, turn-off variant 1)”, the “apparent KD of MS2 coat protein” value reads like this: (input ligand: FMN 200 uM) 20.1 nM; (input ligand: none) 21.2 nM.

Take “GAGCAGUGAGGAUAUACAUGAGGAUCACCCAUGUAAUGGUAGUCGGGAUUAAUUUGGUGUAGAAGGCGCUUAUU [JR_Ex3_Sub021] (Eterna round: R97, puzzle: Exclusion 3)”: the “apparent KD of MS2 coat protein” value amounted to 64 nM (input ligand: FMN 200 uM) and 79.9 nM (input ligand: none).

In the case of “CAUGAUUGACGAGGAUAUUGUACUACAUCACGACGAGAAGGCGUCUGUCACAUGAGGAUCACCCAUGUGAGACUGGUGAAUGAG [Ex NG1 #80] (Eterna round: R96, puzzle: Exclusion NG 1)”, the “apparent KD of MS2 coat protein” value turned out to be 31.6 nM (input ligand: FMN 200 uM), 16.7 nM under setting [2] and 26.2 nM (input ligand: none).

With “CAGUACUACAAGCUUCGGGACAUGAGGAUCACCCAUGUUCGUCUUAUUGAUCUAGGUACGCUGACGUACCUAGAUCU [JL-sv1-2.13 Brourd mod] (puzzle: Sensor v3, turn-off variant 1)”, the “apparent KD of MS2 coat protein” value is, setting by setting: under setting [3], 18.6 nM; under setting [1], 32.4 nM; under setting [4], 16.1 nM.

On to “GUGUAGAUAGGAUAUGCUUUGAGCCUACGAAAGUACGCUCGACAUGAGGAUCACCCAUGUAGAAGGGUUUACAC [LRO-Excl2-05] (puzzle: Exclusion 2)”, for which the “apparent KD of MS2 coat protein” value under setting [1] worked out at 88.7 nM.

As to “CGUCAGUGAGGAUAUGGUUUCGUGUACAUGAGGAUCACCCAUGUUUCUUGGGACUAAUUACUAGAAGGCACUGACG [JR_Ex5_Sub033] (Eterna round: R97, puzzle: Exclusion 5)”, the “apparent KD of MS2 coat protein” value reads like this: (input ligand: FMN 200 uM) 21.2 nM; (input ligand: none) 14 nM.

In the case of “UGAGUGCUGCGAGGAUAUACAUGAGGAUCACCCAUGUAAACGUGUGAGGCUUUGCCUCACACGAUGUAGAAGGCGCAGUACUCU [JL ENG2 1.05] (Eterna round: R96, puzzle: Exclusion NG 2)”, the “apparent KD of MS2 coat protein” value reads like this: (input ligand: FMN 200 uM) 18.4 nM; under setting [2], 9.25 nM; (input ligand: none) 14 nM.

Take “AUAAUGUGAGGAUAUAUGCAUCACGGUGAUACACCGUGAUGAUAGAAGGUACAUGAGGAUCACCCAUGUAGGGC [Mod of Anonveat 16 - Jieux - Exclusion 4] (Eterna round: R97, puzzle: Exclusion 4)”: the “apparent KD of MS2 coat protein” value (input ligand: FMN 200 uM) is 51.2 nM and the “apparent KD of MS2 coat protein” value (input ligand: none) turned out to be 37.8 nM.

With “UACAUGAGGAUCACCCAUGUUUUGUCGUGUAUGGUAUUUAUCUAGGAUAUCAAUUGUUUUAUUUAUGAGAAGGAGAAUAUUAAU [JMF's solution 56] (Eterna round: R96, puzzle: Exclusion NG 3)”, the “apparent KD of MS2 coat protein” value under setting [2] came to 24.8 nM.

Turning to “GUUGUGUGAGGAUAUGCCUGGCCGUGAGGCCAGAUUGAGUGGCAGAAGGUACAUGAGGAUCACCCAUGUACGGG [salish99_ex4_4_004] (Eterna round: R97, puzzle: Exclusion 4)”, the “apparent KD of MS2 coat protein” value is 54.1 nM (input ligand: FMN 200 uM) and 24.4 nM (input ligand: none).

Regarding “AUUAAUGUCAAAGGAUAUCAGCACGAUUAGUGCUGAGAAGGUUGAACAUGAGGAUCACCCAUGUAGAUCAUUAAUAAUUUAAUU [ENG1/10-B2] (Eterna round: R96, puzzle: Exclusion NG 1)”, the “apparent KD of MS2 coat protein” value by setting is: (input ligand: FMN 200 uM) 26.4 nM; under setting [2], 17.9 nM; (input ligand: none) 16.9 nM.

With “UUUGCAAGCUAAAGAUCCCACAUGAGGAUCACCCAUGUUGCUGCCGUGAGGUAGCAUUUAACUUUUGCUCGUCUUAU [JL TOV1 3.49] (Eterna round: R97, puzzle: Sensor, turn-off variant 1)”, the “apparent KD of MS2 coat protein” value by setting is: (input ligand: FMN 200 uM) 282 nM; (input ligand: none) 300 nM.

As to “ACAAGCAUUUAGUAAAUGGACAUGAGGAUCACCCAUGUGAGUCCGAAGAGAUAAGAUAUAUUGUCGGCUCGUCUUAU [AK-miRNA-r3-22] (Eterna round: R97, puzzle: Sensor, turn-off variant 1)”, the “apparent KD of MS2 coat protein” value was 55.9 nM (input ligand: FMN 200 uM) and 94.8 nM (input ligand: none).

As for “AUUAGCUGAGGAUAUGCAGCUUUGUUCGUCGAGUGAAAAGAACAUGAGGAUCACCCAUGUAGAAGGCAGUUGAC [Raargexe] (puzzle: Exclusion 2)”, the “apparent KD of MS2 coat protein” value under setting [1] was 14.8 nM.

For “GUGAGGGAGUGAGGAUAUCAGGGAGAUAAGAAAUGAGAAGGUACAUGAGGAUCACCCAUGUAAGAGUAGGGAAGAGAGAAGAGU [Default title] (Eterna round: R96, puzzle: Exclusion NG 1)”, the “apparent KD of MS2 coat protein” value was determined as 69.3 nM (input ligand: FMN 200 uM), 31.6 nM under setting [2] and 66.7 nM (input ligand: none).

Consider “UUCCAACGAGGAUAUCGAUGGUGGAACAUGAGGAUCACCCAUGUAUGAGAUAGUGUAGUUCGAGAAGGCGUUCAGU [JR_E5_Sub055] (puzzle: Exclusion 5)”, for which the “apparent KD of MS2 coat protein” value under setting [1] was 41.9 nM.

Take “AACCUGAGGCAUAGCUUUAGGUUUACAUGAGGAUCACCCAUGUAGGAUAUGGUAGGCAUAGCUUACCAGAAGGACAUGAAAAUU [Mat - Exclusion NG 3 - Mod of JL - D30] (Eterna round: R96, puzzle: Exclusion NG 3)”: the “apparent KD of MS2 coat protein” value runs as follows: (input ligand: FMN 200 uM) 417 nM; under setting [2], 47.9 nM; (input ligand: none) 55.6 nM.

For “AGAGAGAUAGGAUAUACGUGGUUUUCUCAGGUCUAAGUUCAACAUGAGGAUCACCCAUGUAGAAGGAUCAAAAG [EX2 C.14] (Eterna round: R97, puzzle: Exclusion 2)”, the “apparent KD of MS2 coat protein” value (input ligand: FMN 200 uM) came out at 690 nM and the “apparent KD of MS2 coat protein” value (input ligand: none) worked out at 156 nM.

For the sequence “AGGUAACAUGAGGAUCACCCAUGUCAGGAUAUCAGUAAGAUGAGGAUAGAAUAGAGUAUGAGAAGGGACUAUAU [Excluse me! 22 - Jieux - Exclusion 1] (puzzle: Exclusion 1)”, the “apparent KD of MS2 coat protein” value was 34 nM under setting [3], 38.5 nM under setting [1] and 47.6 nM under setting [4].

As to “UGUUGUCGCGCAGGAUAUGAGGAUCACCCAUAUAAAGGAUAUGAAAAGAAGGUUCUGAGGAUUACCCAGAAGGGCGGGACAACU [pwkr exNG2 2xF5 2xFMN.16] (Eterna round: R96, puzzle: Exclusion NG 2)”, the “apparent KD of MS2 coat protein” value by setting is: (input ligand: FMN 200 uM) 250 nM; under setting [2], 40.3 nM; (input ligand: none) 52.3 nM.

With “CCGGAACAUGAGGAUCACCCAUGUGAGGAUAUCGUACGUUCGUCGAAAGACGAUCGUACGAGAAGGCACGCCGG [Eli x1 4.33] (Eterna round: R97, puzzle: Exclusion 1)”, the “apparent KD of MS2 coat protein” value worked out at 17.2 nM (input ligand: FMN 200 uM) and 14.6 nM (input ligand: none).

Consider “AUUAGUAAUAAGGAUAUCACUAGCUGCGGCUAGUGAGAAGGUAUUACAUGAGGAUCACCCAUGUGAUCAAUUAA [E6/3-A3] (Eterna round: R97, puzzle: Exclusion 6)”, for which the “apparent KD of MS2 coat protein” value by setting is: (input ligand: FMN 200 uM) 912 nM; (input ligand: none) 476 nM.

For the sequence “CGAAGUAGAAACCGAUCCUACAUGAGGAUCACCCAUGUAGCAAGACGUGCACGCGAAGCUCGUCAGACUACCAGAAC [salish99_TOv1_r3_013] (puzzle: Sensor v3, turn-off variant 1)”, the “apparent KD of MS2 coat protein” value by setting is: under setting [3], 312 nM; under setting [1], 332 nM; under setting [4], 420 nM.
